The text below walks through data of publication PMC7316729, “The cryo-EM structure of the bacterial flagellum cap complex suggests a molecular mechanism for filament elongation” (Nature Communications, 2020).

Where “and” joins values, the source holds several entries; their conditions need not be identical. Identical values can stand only once.

Data set [1] deals with the molecule itself. Put plainly: negative-stain TEM with 2D classification; purified protein on carbon-coated copper grids, 0.75% uranyl formate; ~3500 particles for FliDsm and 2700 for FliDpa, 2D class averages.
Data set [2] deals with the molecule itself. Put plainly: cryo-EM structure; purified FliDcj at 1 mg/ml vitrified on holey carbon grids; protein in 50 mM HEPES 150 mM NaCl pH 7; D5 symmetry (full map, 4.7 Å), C5 (head map, 5.0 Å).
Data set [3] has as its target T1, FliD from Pseudomonas aeruginosa, full length (P. aeruginosa), Q9K3C5.
T1 chain: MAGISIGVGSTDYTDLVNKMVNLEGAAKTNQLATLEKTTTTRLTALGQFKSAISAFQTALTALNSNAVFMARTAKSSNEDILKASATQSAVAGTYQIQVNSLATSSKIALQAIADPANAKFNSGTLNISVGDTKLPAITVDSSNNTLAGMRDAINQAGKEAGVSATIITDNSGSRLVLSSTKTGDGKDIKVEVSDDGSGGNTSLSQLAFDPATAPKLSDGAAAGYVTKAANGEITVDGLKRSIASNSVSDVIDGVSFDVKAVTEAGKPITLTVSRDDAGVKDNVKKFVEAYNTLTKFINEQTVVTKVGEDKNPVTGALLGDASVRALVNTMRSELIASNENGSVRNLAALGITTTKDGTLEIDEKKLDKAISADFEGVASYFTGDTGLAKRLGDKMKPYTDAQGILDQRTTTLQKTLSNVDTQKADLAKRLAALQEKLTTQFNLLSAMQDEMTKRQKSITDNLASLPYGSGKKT
Put plainly: negative-stain TEM with 2D classification; purified protein on carbon-coated copper grids, 0.75% uranyl formate; ~3500 particles for FliDsm and 2700 for FliDpa, 2D class averages. To be noted: remark: other sources report otherwise.

B1: FliD from Serratia marcescens, full length (natural protein)
chain: MATISSLGLGSGLDLNGLLDKLTKAEQQRLTPYTTKQSSYNAQLTGYGTLKGALEKFDNLSKEMAKEDFFKATTATEHDAFKITTNAKAVPGNYVVEVNKLAQAQTLTTQAKVSDQGAKLGAEGVTDRSLTITAGNPPKETKIPLSDDQTSLVELRDAINGAKAGVTASIMRVGDNDYQLAVSSSTTGENNKISLQVDNDDQLGDILNYNATRGTGTAMKQTVAPQDAELTVNGTAIKRSTNSISDALQGVTIDLKTKTKTDEPQHLVISTNTAGTTDKIKEWVDSYNSLLDTFNALSKFTPVKTGEAPNPTNGPLLGDNTLRGIQSSIKSALSAAQDNPELKGLGNLGISTNTKTGKLEIDSAKLKKAMDEKPDQVSNFFVGNGKDTGMATEIHNEIQSYIKSGGIIENSTKSINTNLDRLNSQITTVTASIQNTIDRYKQQFVQLDTMMSKMNGTSNYLAQQFK
notes: FliD (flagellar cap protein) of Serratia marcescens; gene codon-optimised for E. coli, synthesised and sub-cloned into pET28a; The head domain of this protein is PDB 5XLJ (cited); also called FliDsm; source: E. coli BL21-CodonPlus(DE3)-RIL, purified (Ni-NTA, Superdex 200 SEC)
For B1, in data set [1], the stoichiometry N (usually the number of molecules, sites or subunits per partner or assembly) came to 5.

B2: FliD from Campylobacter jejuni, full length (flagellum cap protein) (natural protein)
chain: MAFGSLSSLGFGSGVLTQDTIDKLKEAEQKARIDPYTKKIEENTTKQKDLTEIKTKLLSFQTAVSSLADATVFAKRKVVGSISDNPPASLTVNSGVALQSMNINVTQLAQKDVYQSKGLANDGGFVNAQLNGTADLTFFSNGKEYTVTVDKNTTYRDLADKINEASGGEIVAKIVNTGEKGTPYRLTLTSKETGEDSAISFYAGKKDSNGKYQKDINAEKIFDDLGWGLDVSASIDPDKDKKGYGIKDASLHIQTAQNAEFTLDGIKMFRSSNTVTDLGVGMTLTLNKTGEINFDVQQDFEGVTKAMQDLVDAYNDLVTNLNAATDYNSETGTKGTLQGISEVNSIRSSILADLFDSQVVDGTTEDANGNKVNTKVMLSMQDFGLSLNDAGTLSFDSSKFEQKVKEDPDSTESFFSNITKYEDINHTGEVIKTGSLSKYLNSNGGNTNGLEFKPGDFTIVFNNQTYDLSKNSDGTNFKLTGKTEEELLQNLANHINSKGIEGLKVKVESYNQNNVTGFRLNFSGDGSSDFSIKGDANILKELGLSDVNITSKPIEGKGIFSKLKATLQEMTGKDGSITKYDESLTNDIKSLNTSKDSTQAMIDTRYDTMANQWLQYESILNKLNQQLNTVTNMINAANNSNN
notes: FliD (flagellar cap protein, HAP2) of Campylobacter jejuni; gene codon-optimised for E. coli, synthesised and sub-cloned into pET28a; printed numbering runs to residue 643 (C-terminus 577-643); The D4 domain was not built in the model 6SIH; also called FliDcj; HAP2; source: E. coli BL21-CodonPlus(DE3)-RIL, purified (Ni-NTA, Superdex 200 SEC)
As for B2, the “stoichiometry N” value in data set [2] was 10 and 5.

B3: FliD from Pseudomonas aeruginosa, full length, Q9K3C5 1-474 (natural protein)
chain: MAGISIGVGSTDYTDLVNKMVNLEGAAKTNQLATLEKTTTTRLTALGQFKSAISAFQTALTALNSNAVFMARTAKSSNEDILKASATQSAVAGTYQIQVNSLATSSKIALQAIADPANAKFNSGTLNISVGDTKLPAITVDSSNNTLAGMRDAINQAGKEAGVSATIITDNSGSRLVLSSTKTGDGKDIKVEVSDDGSGGNTSLSQLAFDPATAPKLSDGAAAGYVTKAANGEITVDGLKRSIASNSVSDVIDGVSFDVKAVTEAGKPITLTVSRDDAGVKDNVKKFVEAYNTLTKFINEQTVVTKVGEDKNPVTGALLGDASVRALVNTMRSELIASNENGSVRNLAALGITTTKDGTLEIDEKKLDKAISADFEGVASYFTGDTGLAKRLGDKMKPYTDAQGILDQRTTTLQKTLSNVDTQKADLAKRLAALQEKLTTQFNLLSAMQDEMTKRQKSITDNLASLPYGSGKKT
In data set [3], B3 came in with a percent of particles that are pentamers of 25.5% and a stoichiometry N of 5.
